Here are results for two molecules from patent publication US5885811A, “Leader sequence inducing a post-translational modification of polypeptides in bacteria gene therefor and subtilin variant of enhanced stability and activity” (University of Maryland, priority 1995, dated 1999).

Series [1] is classed as physicochemical. As for the experimental part:
Measurement of chemical stability of DHA5. The dehydro residues of nisin and subtilin have vinyl protons that give well-separated resonances in the proton NMR spectrum, Liu and Hansen, Appl. Environ. Microbiol., 56, p. 251 (1990). The areas of the vinyl proton peaks in the NMR spectrum were measured, and chemical modification of DHA5 over time was taken as the decrease in peak area of the DHA5 vinyl protons in subtilin and in E4I-subtilin as compared to zero time. Proton NMR spectra were obtained using a Bruker AMX-500 NMR spectrometer. The spectra were obtained at a constant temperature of 295K, using selective solvent suppression.
Chemical and biological stability of natural subtilin. The natural producer of subtilin is B. subtilis ATCC 6633. […] These dissolved samples were incubated at room temperature, and from time to time, the NMR spectrum of the one sample and the biological activity of the other sample against Bacillus cereus spores were determined. […]
E4I-subtilin has enhanced chemical and biological stability. The central design strategy in the construction of a stable mutant of subtilin was based on the idea that the chemical and biological stabilities of subtilin are determined by the chemical reactivity of DHA5; and that DHA5 in natural subtilin is unstable because the Glu4 carboxyl participates in its chemical modification (FIG. 7). […]

The test system of the next series is Bacillus cereus T spores. Description: Spore outgrowth liquid assay (amount required to inhibit spore outgrowth during 3 hour assay). Type of series: cell-based. The protocol:
(§1) Measurement of biological stability of subtilin. Biological activity against Bacillus cereus spores was measured by a liquid assay in which various concentrations of subtilin were added to a suspension of Bacillus cereus T spores in 15 ml polypropylene tubes, and inhibitory effects were evaluated by phase-contrast microscopy as described previously (Morris et al, J. Biol. Chem., 259, 13590-13594 (1984) and Appl. Environ. Microbiol., 42, 958-962 (1981)). The amount of subtilin required to inhibit spore outgrowth during the 3 hour assay period was used as a measure of antimicrobial activity. Relative amounts of subtilin were estimated from the area of the subtilin peak (measured at 254 nm) that eluted from the C-18 analytical HPLC column during purification. The amounts were converted to molar quantities of subtilin by comparing the peak area of subtilin with that of a known molar quantity of a nisin standard (21). For this purpose, the extinction coefficients of nisin and subtilin at 254 nm were assumed to be the same, in that absorbance at this wavelength is mainly due to the same three dehydro residues present in both peptides. The biological activity against Bacillus cereus spores of the E4I-subtilinmutant was determined in the same way as for natural subtilin.
E4I-subtilin has enhanced specific activity. […]

A further series deals with Bacillus cereus spores. Put plainly: Biological stability: activity against Bacillus cereus spores over time of incubation. Type of series: cell-based. As to conditions: 50 mM NaPi pH 6.8, room temperature, compared with DHA5 disappearance. The protocol: as §1
Chemical and biological stability of natural subtilin. The natural producer of subtilin is B. subtilis ATCC 6633. […]

For series [2] the following is noted: reported; cited from earlier work.

On to `C=C(NC(=O)[C@@H](NC(=O)[C@H](CCCCN)NC(=O)[C@@H]1CSC(C)[C@H]2NC(=O)[C@H](CC(C)C)NC(=O)[C@H](NC(=O)[C@H](CCC(N)=O)NC(=O)[C@H](CC(C)C)NC(=O)[C@H](Cc3ccccc3)NC(=O)[C@@H]3CSC(C)[C@@H](NC(=O)[C@@H](NC(=O)[C@@H]4CSC(C)[C@@H](NC(=O)[C@@H]5CSC[C@@H](NC(=O)[C@H](CCCCN)NC(=O)[C@@H](N)Cc6c[nH]c7ccccc67)C(=O)N[C@@H]([C@@H](C)CC)C(=O)NC(=C)C(=O)N[C@@H](CC(C)C)C(=O)N5)C(=O)N5CCC[C@H]5C(=O)NCC(=O)N4)C(C)C)C(=O)NCC(=O)N[C@@H](C)C(=O)N[C@@H](CC(C)C)C(=O)N[C@@H](CCC(N)=O)C(=O)NC(=CC)C(=O)N3)C(C)SC[C@H](NC2=O)C(=O)N[C@@H](CC(N)=O)C(=O)N1)[C@@H](C)CC)C(=O)N[C@@H](CCCCN)C(=O)O` (stereo partly drawn) [E4I-subtilin], for which, in series [1], the “increase in chemical and biological stability relative to natural subtilin” value was 57 fold.

For `C=C1NC(=O)CC[C@@H](C(=O)O)NC(=O)[C@H](NC(=O)[C@H](CCCCN)NC(=O)[C@@H](N)Cc2c[nH]c3ccccc23)CSC[C@@H](C(=O)N[C@@H]2C(=O)N3CCC[C@H]3C(=O)NCC(=O)N[C@H](C(=O)N[C@H](C(=O)N[C@@H]3C(=O)NCC(=O)N[C@@H](C)C(=O)N[C@@H](CC(C)C)C(=O)N[C@@H](CCC(N)=O)C(=O)N/C(=C/C)C(=O)N[C@H](C(=O)N[C@@H](Cc4ccccc4)C(=O)N[C@@H](CC(C)C)C(=O)N[C@@H](CCC(N)=O)C(=O)N[C@@H]4C(=O)N[C@@H](CC(C)C)C(=O)N[C@H]5C(=O)N[C@@H](CSC4C)C(=O)NC(=O)[C@H](CC(N)=O)N[C@H](C(=O)N[C@@H](CCCCN)C(=O)N[C@H](C(=O)NC(=C)C(=O)N[C@@H](CCCCN)C(=O)O)[C@@H](C)CC)CSC5C)CSC3C)C(C)C)CSC2C)N[C@@H](CC(C)C)C(=O)NC1=O` (stereo partly drawn) [subtilin], in the series with Bacillus cereus T spores, the “concentration showing inhibition of spore outgrowth” value is “about 1 μg per ml” and the “concentration showing inhibition of spore outgrowth (molar)” value is listed as around 280 nM. The “loss of biological activity against Bacillus cereus spores during incubation” value with Bacillus cereus spores is on record as “dropped at approximately this same rate”. The “t1/2 of chemical modification (disappearance) of DHA5, first-order” value in series [1] (aqueous solution (D2O) pH 6.8, room temperature, NMR at 295K) turned out to be 19 h. The light sensitivity result in series [2] is “light-sensitive”.
